This passage reports EC50 results from patent US20200147199A1.

By EC50 is commonly meant the concentration needed to bring the measured effect to its halfway point. Low values mean a more potent agent, high ones a less potent agent.

Test [1] addresses T1, ZIKV E Domain III ([..]), polyhistidine-AviTag, produced in HEK-293-6E cells (ZIKV). Put plainly: ELISA on coated ZIKV EDIII. The note with it: remark: other sources report otherwise. In general terms: ELISA stands for enzyme-linked immunosorbent assay.
In test [2] the target is T1, ZIKV E Domain III ([..]), …. Put plainly: ELISA, biotinylated Z004 on coated ZEDIII, streptavidin-HRP. Conditions: remark: other sources report otherwise.

B1: Z016 (MEX84_p2-55) (antibody, V domains shown)
VH: QVQLVQSGAEVKKPGASVKLSCKASGYTFTSYYVHWVRQAPGQGLEWMGIINPGNNFVSFAQNFYDRATMTRDTSTNTVYMELTNLQSEDTAVYYCARTLVAPSAQSMYYFDFWGQGTLVTVSS
VL: EIVLTQSPGTLSLSPGERGTLSCRASQYITTGHFAWYQQKPGRAPRLLIYGASVRATGVPDRFSGSGAETDFTLTISRLDPEDVGVYYCQQYGSSPVTFGPGTKVDIK
For B1, the EC50 in test [1] stood at 0.0724 µg/mL.

B2: Z004 (MEX18_89) (antibody, V domains shown)
VH: EVQLLESGGGLVQPGGSLRLTCATSGFTFRDYAMSWVRQAPGKGLEWVSSYSGIDDSTYYADSVKGRFTISRDNSKSTLSLHMNSLRAEDSALYFCAKDRGPRGVGELFDSWGQGTLVTVSS
VL: DIQMTQSPSTLSASVGDRVTITCRASQSISKWLAWYQQKPGKAPKLLIYTTSTLKSGVPSRFSGSGSGTEFTLTISSLQPDDFATYYCQHFYSVPWTFGQGTKVEIK
In the case of B2, the EC50 in test [2] came to 0.16 µg/mL.
